According to patent US6660467 (INSTITUTO DI RICERCHE DI BIOLOGIA MOLECOLARE P ANGELETTI S …, dated 2003):

T1: membrane-bound CNTFR (m-CNTFR), full-length human CNTFR (amino acids 1-372) (human, UniProt P26992 23-342)
T1 construct: whole, on cells; also called full-length CNTFR; CNTFR on HepG2/CNTFR cells
T1 sequence (looked up): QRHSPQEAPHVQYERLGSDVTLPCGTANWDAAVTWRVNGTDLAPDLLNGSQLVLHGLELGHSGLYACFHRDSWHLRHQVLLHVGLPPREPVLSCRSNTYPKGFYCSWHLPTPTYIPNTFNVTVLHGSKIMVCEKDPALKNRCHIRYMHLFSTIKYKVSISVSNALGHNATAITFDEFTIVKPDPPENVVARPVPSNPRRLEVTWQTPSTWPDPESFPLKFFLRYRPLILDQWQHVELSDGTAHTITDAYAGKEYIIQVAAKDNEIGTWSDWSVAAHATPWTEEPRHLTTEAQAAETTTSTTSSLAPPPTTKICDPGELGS

T2: solid phase-immobilized CNTFR (UniProt P26992 23-342, limits assumed)
T2 construct: also called CNTF alpha-receptor
T2 sequence (looked up): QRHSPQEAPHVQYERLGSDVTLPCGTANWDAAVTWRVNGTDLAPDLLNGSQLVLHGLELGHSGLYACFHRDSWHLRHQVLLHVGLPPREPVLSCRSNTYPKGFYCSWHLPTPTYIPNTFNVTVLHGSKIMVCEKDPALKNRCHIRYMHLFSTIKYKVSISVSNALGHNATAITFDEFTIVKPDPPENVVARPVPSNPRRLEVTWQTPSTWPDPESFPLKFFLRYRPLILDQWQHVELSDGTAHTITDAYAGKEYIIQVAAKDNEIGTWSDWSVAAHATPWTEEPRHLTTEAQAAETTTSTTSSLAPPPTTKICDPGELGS

T3: soluble CNTFR (s-CNTFR) (UniProt P26992 23-346, limits assumed)
T3 sequence (looked up): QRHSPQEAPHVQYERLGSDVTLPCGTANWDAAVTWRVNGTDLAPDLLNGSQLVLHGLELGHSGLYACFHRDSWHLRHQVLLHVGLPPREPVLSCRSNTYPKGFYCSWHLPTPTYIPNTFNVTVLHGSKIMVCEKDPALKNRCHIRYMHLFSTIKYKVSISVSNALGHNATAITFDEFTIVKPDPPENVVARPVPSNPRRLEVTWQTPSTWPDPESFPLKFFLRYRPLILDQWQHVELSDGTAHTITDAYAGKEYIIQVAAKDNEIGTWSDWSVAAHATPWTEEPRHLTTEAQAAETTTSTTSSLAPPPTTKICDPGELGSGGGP


What was measured:
[1] = target: T1, membrane-bound CNTFR (m-CNTFR), …; experiment: CNTF surface binding on HepG2 cells stably transfected with full-length human CNTFR
[2] = target: T2, solid phase-immobilized CNTFR; experiment: competition with biotinylated CNTF for binding to solid phase-immobilized CNTFR
Protocol: The CNTFR binding activity of CNTF and IA-CNTF was determined by measuring the ability of the proteins to compete with biotinylated CNTF for binding to solid phase-immobilized CNTFR, using a previously described procedure (Saggio et al., 1994; Saggio et al., 1995).

[3] = target: T3, soluble CNTFR (s-CNTFR); experiment: cell-based or functional assay

| binding result [1] | fold reduction of affinity against wild-type CNTF [2] [fold] | stimulation of haptoglobin production in HepG2 cells at a subsaturating concentration of s-CNTFR; EC50 relative to CNTF [3] | Binder |
| --- | --- | --- | --- |
| binds | – | – | human ciliary neurotrophic factor, wild type (hCNTF; SEQ ID NO: 1) (ligand, also called human CNTF; wild-type CNTF) MAFTEHSPLTPHRRDLCSRSIWLARKIRSDLTALTESYVKHQGLNKNINLDSADGMPVASTDQWSELTEAERLQENLQAYRTFHVLLARLLEDQQVHFTPTEGDFHQAIHTLLLQVAAFAYQIEELMILLEYKIPRNEADGMPINVGDGGLFEKKLWGLKVLQELSQWTVRSIHDLRFISSHQTGIPARGSHYIANNKKM |
| – | 15 | 5 fold (EC50 relative to CNTF) | Thr169Ile/His174Ala/human CNTF (IA-CNTF; SEQ ID NO:2) (ligand, Produced in E. coli, purified by reverse-phase HPLC; also called Thr169Ile/His174Ala/hCNTF) MAFTEHSPLTPHRRDLCSRSIWLARKIRSDLTALTESYVKHQGLNKNINLDSADGMPVASTDQWSELTEAERLQENLQAYRTFHVLLARLLEDQQVHFTPTEGDFHQAIHTLLLQVAAFAYQIEELMILLEYKIPRNEADGMPINVGDGGLFEKKLWGLKVLQELSQWIVRSIADLRFISSHQTGIPARGSHYIANNKKM |
